# Reference: the RNAGym collection of RNA variant scans (doi:10.1093/nar/gkz1192)
# B1: CPEB3 Ribozyme (parent)
# chain: UAACAGGGGGCCACAGCAGAAGCGUUCACGUCGCAGCCCCUGUCAGAUUCUGGUGAAUCUGCGAAUUCUGCUGUAUAUCUC
# Variants of: B1
# Test: self-cleavage, relative activity (ratio to wild type); higher = more cleavage; in vitro, sequencing
# In short: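 Barcoded CPEB3 ribozyme mutants, produced by rounds of error-prone PCR, self-cleaved while being transcribed with T7 RNA polymerase for 5 hours at 37°C and during a subsequent 15 min DNase I step before EDTA was added. Sequencing of template-switched cDNA on Illumina gave cleaved and total reads, and DNA sequencing assigned barcodes to variants. Each variant's relative activity is its cleaved/total read fraction divided by the unmutated ribozyme's fraction, averaged across three batches. A variant needed a minimum of 5 reads.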
row,Variant,self-cleavage
1,A2G U31A,0.43
2,A2G U31C,0.41
3,A2U A56C,0.73
4,A2U A56G,0.88
5,A2U A56U,0.4
6,A2G U48A,0.09
7,A2G U48C,0.28
8,A2G U67C,0.26
9,A2G U67A,0.3
10,A2U A3U,1.04
11,A2U A3G,0.99
12,A3C U43A,1.24
13,A3C U43C,0.81
14,A2G C81U,0.81
15,A2U G70C,0.31
16,A2U U48C,0.62
17,A3C U60C,0.83
18,A2U A45G,0.85
19,A2U A45U,0.54
20,A2G C37A,0.27
21,A2G C37U,0.66
22,A3C C17U,0.54
23,A3C U74A,1.14
24,A2G G8A,0.3

row,Variant,self-cleavage
1,A2G G8U,0.11
2,A3G C4A,1.17
3,A3G C4U,1.11
4,A3G C4G,1.15
5,A2G U54G,0.51
6,A2G U54C,0.58
7,A2G U54A,0.66
8,A2G G19A,0.58
9,A2G G19U,0.89
10,A3G A47G,0.92
11,A3G A47U,0.48
12,A2U A65G,0.26
13,A2U A65U,0.29
14,A2U A18G,0.89
15,A2U A18C,0.28
16,A2U A18U,0.41
17,A2G U72C,0.74
18,A2G U72G,0.42
19,A2G U72A,0.36
20,A3C G24A,0.29
21,A2U A47G,1.11
22,A3C U25G,0.55
23,A3C U25C,0.44
24,A3C U25A,0.4

row,Variant,self-cleavage
1,A2G U26C,0.4
2,A2G U26A,0.53
3,A2G U26G,0.18
4,A2G G61A,0.31
5,A3C C37U,0.6
6,A2U C23U,0.35
7,A2U U74C,0.91
8,A3G C14U,1.12
9,A3G C14A,1.13
10,A2G G9A,0.28
11,A2G G9U,0.42
12,A2U C17U,0.31
13,A2G G10U,0.36
14,A2G G10A,0.41
15,A3C A77U,1.03
16,A2U A20G,0.69
17,A2U A20U,0.41
18,A2U A20C,0.32
19,A2U U72C,1.11
20,A2U U72A,0.67
21,A2U C4U,1.15
22,A2U G52C,1.04
23,A3C U51C,1.12
24,A3C U51A,1.19

row,Variant,self-cleavage
1,A2U U49A,0.72
2,A2U G24A,0.3
3,A2U G24U,0.34
4,A3C C62U,0.29
5,A3C A65G,0.92
6,A3C A65U,0.95
7,A3G A56G,0.77
8,A3G A56C,0.8
9,A3G A56U,0.64
10,A2G C39A,0.09
11,A3C A45G,0.93
12,A3C A45U,0.89
13,A2G U74A,1.07
14,A2G U74C,1.12
15,A2G U74G,1.01
16,A2G G42A,0.05
17,A2G G42U,0.55
18,A2G C59A,0.23
19,A2G C59G,0.24
20,A3C C39U,1.13
21,A2G G7U,0.42
22,A2G C17U,0.56
23,A2G G30U,0.69
24,A2G G30A,0.39

row,Variant,self-cleavage
1,A2U U25C,0.37
2,A2U U25A,0.09
3,A2G C62U,0.32
4,A2G C62A,0.15
5,A3C A20G,1.05
6,A2U G8U,0.28
7,A2U G8A,0.27
8,A2U G22A,0.22
9,A2G G6A,0.59
10,A2G G6U,0.68
11,A2U C40G,0.31
12,A2U C40U,0.89
13,A2G U76A,0.73
14,A2G U76C,0.73
15,A2U U51C,1.07
16,A2U U51A,1.17
17,A2U U51G,1.17
18,A3G A77U,0.99
19,A3G A77G,1.03
20,A3G A77C,1.03
21,A3G A15G,0.84
22,A3G A15U,0.78
23,A3G A15C,0.95
24,A2U,0.96

row,Variant,self-cleavage
1,A2G G24A,0.3
2,A2U C34U,0.24
3,A2U G16A,0.18
4,A2G U43C,0.34
5,A2G U43A,1.02
6,A3C U54C,1.17
7,A3G A35G,1.21
8,A3G A35C,0.9
9,A3G A35U,0.64
10,A2G G36C,0.24
11,A2G G36A,0.16
12,A2G G52C,0.83
13,A2G G52A,0.65
14,A2G G52U,0.77
15,A3C U72A,1.09
16,A2G U80C,0.69
17,A2G U80G,0.17
18,A2G U80A,0.77
19,A3G C23A,0.22
20,A3G C23U,0.38
21,A3G C23G,0.33
22,A2G G70A,0.16
23,A2G C14U,0.49
24,A3G C11G,0.54

row,Variant,self-cleavage
1,A3G C11U,0.51
2,A3G C11A,0.32
3,A3C C11U,0.88
4,A2U C44A,0.24
5,A2U U60A,0.56
6,A2U U60C,0.47
7,A3C G46A,0.25
8,A3G C29G,0.43
9,A3G C29A,0.58
10,A3G C29U,0.59
11,A2U U78C,0.87
12,A3C A15G,1.03
13,A3C A15U,0.77
14,A2U U66A,0.52
15,A2U U66C,0.38
16,A2G G63U,0.62
17,A3C U49C,0.86
18,A3C U49A,1.1
19,A2U C62G,0.31
20,A2U C62U,0.31
21,A2G U69G,0.46
22,A2G U69A,0.33
23,A2G U69C,0.32
